Experimental data: US9962427B2, “Treatment of right ventricular dysfunction due to pressure overload” (OTTAWA HOSPITAL RESEARCH INSTITUTE, priority 2016, dated 2018)

Key:
Assay type in all cases: cell-based
[1] = system: primary neonatal cardiomyocytes; test: In vitro reversion of cardiomyocyte hypertrophy after removal of stimulus; details: for myocyte hypertrophy (cell area) after removal of stimulus: 2 day treatment, then 4 days serum-free media (Day 6); for cardiomyocyte cell size after 2 days of stimulation compared to control: PE 100 μM or hCT1 0.5 nM, Day 2
Procedure: FIGS. 2A and 2B. hCT1 induces physiologic adaptive compensation in vitro with reversion to a normal cardiomyocyte phenotype upon removal of hCT1 stimulation.
The morphological effects of CT-1 in an in vitro reversion setting (FIGS. 2A and 2B) were explored. Primary neonatal cardiomyocytes were stimulated for 2 days with phenylephrine (PE, 100 μM) or hCT1 (0.5 nM) followed by removal of the stimulus for 4 days: i.e. replenished with serum-free (SF) media. Cells were imaged at Day 0 and Day 2 of stimulation; and at Day 6 (4 days post-treatment). […] The population frequencies of L:W ratios of cardiomyocytes stimulated as above were examined (FIG. 2B). […] However, upon treatment with CT-1, only ˜20% of cardiomyocytes display a L:W ratio of 1.0 to 2.0 with the remaining cardiomyocytes showing an increased shift between 3.0 and 9.0 indicating eccentric growth. […] These observations indicate that although there is not complete penetrance of the eccentric growth (presumably due to the dosage and timing of CT-1 stimulation used), CT-1 causes an eccentric and reversible cardiomyocyte growth similar to what is seen during RV adaptive compensation, which is distinct from the concentric growth observed with PE which models pathological hypertrophic changes.

Mef2 = Mef2 luciferase reporter in primary neonatal cardiomyocytes; details: hCT1 0.5 nM; for Mef2 activation after 24 hrs: PE 100 μM, PAC-1 25 μM
Procedure: (§1) FIGS. 6A, 6B, and 6C. Stimulation with hCT1 causes sustained activation of NF-κB and Stat3 with limited activation of Mef2, as well as limited Nfat activation; the latter two indices are distinct expression patterns from pathologic hypertrophic stimulation. FIG. 6A Primary neonatal cardiomyocytes were transfected with luciferase reporter plasmids (NF-κB or Mef2), as indicators of hypertrophic activity. Luciferase activity was measured after treatments for 24 hrs with: hCT1 (0.5 nM), PE (100 μM), or procaspase 3 activating compound 1, PAC-1 (25 μM) (left). Treatments at early timepoints (30 min, 1 hr, and 3 hr) were also conducted for hCT1 (right). FIG. 6B Primary neonatal cardiomyocytes were transfected with a luciferase reporter plasmid for Stat3. Luciferase activity was measured after treatments for 24 hrs with: hCT1 (0.5 nM), PE (100 μM), or procaspase 3 activating compound 1, PAC-1 (25 μM) (left) and at earlier time points (right). FIG. 6C Primary neonatal cardiomyocytes were infected with a luciferase-based Nfat reporter Adenovirus (Nfat-AdV). Luciferase activity was measured after treatments for 24 hrs with: hCT1 (0.5 nM), PE (100 μM), or procaspase 3 activating compound 1, PAC-1 (25 μM) (left) and at earlier time points (right)
The signaling pathways that CT-1 engages in mediating physiologic adaptive compensatory remodeling were examined. The applicants predicted that cardiomyocyte adaptive remodeling mediated by CT-1 results (in part) from the induction of a specific transcriptional program, which is distinct from that of pathologic hypertrophic response. To address this hypothesis, the applicants tested the activity of two well-known transcription factor families that have been linked to both physiologic and pathologic cardiomyocyte growth, the Mef2 (Kolodziejczyk et al. 1999 Curr Biol. 9, 1203-1206; Kim et al. 2008, J Clin Invest. 118, 124-132.) and the NF-κB family (Gordon et al. 2011, Circ Res. 108, 1122-1132). Primary neonatal cardiomyocytes were transfected with luciferase reporter plasmids (NF-κB and Mef2) to be used as a read out of transcriptional activity. Luciferase activity was determined after treatments for 24 hrs with: hCT1 (0.5 nM), PE (100 μM), or procaspase 3 activating compound 1, PAC-1 (25 μM). […] This pattern of transcription factor activation was distinct from that induced by PE and by the caspase 3 specific activating compound PAC-1.

NFAT = NFAT luciferase reporter adenovirus (Nfat-AdV) in cardiomyocytes
Procedure: as §1
Applicants tested this supposition by infecting cardiomyocytes with an NFAT luciferase reporter linked to an Adenovirus (AdV) backbone (FIG. 6C). Cardiomyocytes were infected at a […] (MOI) of 20 with Nfat-AdV for 24 hours prior to stimulation with hCT1 (0.5 nM), PE (100 μM), or procaspase 3 activating compound 1, PAC-1 (25 μM). As an initial positive control, co-infection of NFAT-AdV with activated Calcineurin-AdV (a phosphatase and potent activator of NFAT signalling) caused a significant increase in NFAT activity (n=4; *, P<0.05). […] Although the exact mechanism of inhibition is unknown, Applicant has shown CT-1 engaging a PI3K signalling pathway and it would be reasonable to postulate that phosphorylation of NFAT by CT-1/PI3K signalling would limit NFAT activity.

[2] = system: Vascular Endothelial Growth Factor—VEGF; test: VEGF expression by immunofluorescence in primary cardiomyocytes; details: 24 hours; hCT1 0.5 nM, PE 100 μM, PAC-1 25 μM
Procedure: FIGS. 8A and 8B. […] FIG. 8B Microarray analysis of primary cardiomyocytes stimulated with hCT1 (0.5 nM) for 24 hours.
Applicant explored the role of CT-1 as a pro-angiogenic factor in the adaptive hypertrophic response. Physiologic cardiac adaptive compensation is associated with an increase in capillary density, whereas pathologic response is characterized by a decline or no change at all. Importantly, the compensatory vascular growth/angiogenesis that occurs during physiologic adaptive compensation is permissive for the increased workload that accompanies physiologic adaptive compensation. Despite this adaptation, little information exists regarding the mechanisms that match the demand for angiogenesis to the beneficial form of myocardial growth. The rapid in vitro and in vivo adaptive compensation in response to CT-1 supports a hypothesis that the cardiomyocyte itself may act in a paracrine fashion, to signal and promote angiogenesis. To address this conjecture, Applicant examined whether CT-1 treated primary cardiomyocytes produced vascular endothelial growth factor (VEGF), an angiogenic factor known to be produced and secreted by cardiomyocytes. Primary cardiomyocytes were incubated with control serum-free media (Ctrl, SF media) or stimulated with hCT1 (0.5 nM), PE (100 μM), or PAC-1 (25 μM) for 24 hours. Immunofluorescence was used to detect α-actinin, Vascular Endothelial Growth Factor—VEGF, and nuclei. […] Based on these observations Applicant next conducted a comparative gene expression analysis of control (non-stimulated) versus CT-1 treated (0.5 nM, 24 hours) primary cardiomyocytes, using the Affymetrix Rat gene 2.0ST array.

Row | Molecule | myocyte hypertrophy (cell area) after removal of stimulus [1] | cardiomyocyte cell size after 2 days of stimulation compared to control [1] | Mef2 activation after 24 hrs (Mef2) | NFAT activity compared to baseline levels (NFAT; as early as 3 hours, up to 24 hours, PE 100 μM, PAC-1 25 μM) | VEGF expression (immunofluorescence) [2] | L:W ratio population frequency after removing stimulation ([1]; 4 days after removal) | proportion of cardiomyocytes with L:W ratio of 1.0 to 2.0 ([1]; upon treatment (2 days), control ~60%) [%] | Mef2 luciferase activity at 1 hr and 3 hr (Mef2) | NFAT activity compared to baseline levels, CT-1 alone (NFAT; 30 minutes, 1 hour, and 3 hours) | NFAT activity after CT-1 pre-treatment compared to PE or PAC-1 alone (NFAT; 3 hours and 24 hours)
1 | CNC[C@H](O)c1cccc(O)c1 [PE, Phenylephrine] | remained hypertrophied | increase in cardiomyocyte cell size | significant activation of Mef2 | significant increase of NFAT activity | less VEGF expression |  |  |  |  | 
2 | hCT1: Recombinant human CT1 protein; 201 amino acid sequence, GenBank Accession Nos AAD12173 and AAA85229 (human) (protein, UniProt Q16619 1-201, looked up) Cardiotrophin-1: MSRREGSLEDPQTDSSVSLLPHLEAKIRQTHSLAHLLTKYAEQLLQEYVQLQGDPFGLPSFSPPRLPVAGLSAPAPSHAGLPVHERLRLDAAALAALPPLLDAVCRRQAELNPRAPRLLRRLEDAARQARALGAAVEALLAALGAANRGPRAEPPAATASAASATGVFPAKVLGLRVCGLYREWLSRTEGDLGQLLPGGSA | reversion of the myocyte hypertrophy | increase in cardiomyocyte cell size | only NF-κB transcriptional activity was sustained |  | rapid increase in the expression of VEGF | reversion of L:W ratio occurs | ~20 | significant activation | slight, yet significant, decrease in NFAT activity | significantly decreased NFAT activity
